Data as given in paper PMC6097932 (Molecular cell, 2018).

Molecular target: the molecule itself
Assay: SEC

B1: FANCA-WT (natural protein, human, UniProt O15360 1-1455, looked up)
chain: MSDSWVPNSASGQDPGGRRRAWAELLAGRVKREKYNPERAQKLKESAVRLLRSHQDLNALLLEVEGPLCKKLSLSKVIDCDSSEAYANHSSSFIGSALQDQASRLGVPVGILSAGMVASSVGQICTAPAETSHPVLLTVEQRKKLSSLLEFAQYLLAHSMFSRLSFCQELWKIQSSLLLEAVWHLHVQGIVSLQELLESHPDMHAVGSWLFRNLCCLCEQMEASCQHADVARAMLSDFVQMFVLRGFQKNSDLRRTVEPEKMPQVTVDVLQRMLIFALDALAAGVQEESSTHKIVRCWFGVFSGHTLGSVISTDPLKRFFSHTLTQILTHSPVLKASDAVQMQREWSFARTHPLLTSLYRRLFVMLSAEELVGHLQEVLETQEVHWQRVLSFVSALVVCFPEAQQLLEDWVARLMAQAFESCQLDSMVTAFLVVRQAALEGPSAFLSYADWFKASFGSTRGYHGCSKKALVFLFTFLSELVPFESPRYLQVHILHPPLVPGKYRSLLTDYISLAKTRLADLKVSIENMGLYEDLSSAGDITEPHSQALQDVEKAIMVFEHTGNIPVTVMEASIFRRPYYVSHFLPALLTPRVLPKVPDSRVAFIESLKRADKIPPSLYSTYCQACSAAEEKPEDAALGVRAEPNSAEEPLGQLTAALGELRASMTDPSQRDVISAQVAVISERLRAVLGHNEDDSSVEISKIQLSINTPRLEPREHMAVDLLLTSFCQNLMAASSVAPPERQGPWAALFVRTMCGRVLPAVLTRLCQLLRHQGPSLSAPHVLGLAALAVHLGESRSALPEVDVGPPAPGAGLPVPALFDSLLTCRTRDSLFFCLKFCTAAISYSLCKFSSQSRDTLCSCLSPGLIKKFQFLMFRLFSEARQPLSEEDVASLSWRPLHLPSADWQRAALSLWTHRTFREVLKEEDVHLTYQDWLHLELEIQPEADALSDTERQDFHQWAIHEHFLPESSASGGCDGDLQAACTILVNALMDFHQSSRSYDHSENSDLVFGGRTGNEDIISRLQEMVADLELQQDLIVPLGHTPSQEHFLFEIFRRRLQALTSGWSVAASLQRQRELLMYKRILLRLPSSVLCGSSFQAEQPITARCEQFFHLVNSEMRNFCSHGGALTQDITAHFFRGLLNACLRSRDPSLMVDFILAKCQTKCPLILTSALVWWPSLEPVLLCRWRRHCQSPLPRELQKLQEGRQFASDFLSPEAASPAPNPDWLSAAALHFAIQQVREENIRKQLKKLDCEREELLVFLFFFSLMGLLSSHLTSNSTTDLPKAFHVCAAILECLEKRKISWLALFQLTESDLRLGRLLLRVAPDQHTRLLPFAFYSLLSYFHEDAAIREEAFLHVAVDMYLKLVQLFVAGDTSTVSPPAGRSLELKGQGNPVELITKARLFLLQLIPRCPKKSFSHVAELLADRGDCDPEVSAALQSRQQAAPDADLSQEPHLF
stoichiometry N: 2
